# Measurements taken from paper PMC3010429.
# B1: G:T 69mer (dsDNA)
# DNA 1: AATTCACGGAATATAAGCTGGTGGTGGTGGGCGCCGGCGGTTGGGCAAGAGTGCGCTGACCATCCAGG
# DNA 2: CCTGGATGGTCAGCGCACTCTTGCCCAACCGTCGGCGCCCACCACCACCAGCTTATATTCCGTGAATT
# Target: hMutSα (hMSH2-hMSH6) WT recombinant (Homo sapiens, UniProt P43246;P52701 1-934;1-1360)
# Experiment: EMSA, supershift
# hMutSα (hMSH2-hMSH6) WT recombinant, sequence (P43246 whole entry, chain 1 of 2): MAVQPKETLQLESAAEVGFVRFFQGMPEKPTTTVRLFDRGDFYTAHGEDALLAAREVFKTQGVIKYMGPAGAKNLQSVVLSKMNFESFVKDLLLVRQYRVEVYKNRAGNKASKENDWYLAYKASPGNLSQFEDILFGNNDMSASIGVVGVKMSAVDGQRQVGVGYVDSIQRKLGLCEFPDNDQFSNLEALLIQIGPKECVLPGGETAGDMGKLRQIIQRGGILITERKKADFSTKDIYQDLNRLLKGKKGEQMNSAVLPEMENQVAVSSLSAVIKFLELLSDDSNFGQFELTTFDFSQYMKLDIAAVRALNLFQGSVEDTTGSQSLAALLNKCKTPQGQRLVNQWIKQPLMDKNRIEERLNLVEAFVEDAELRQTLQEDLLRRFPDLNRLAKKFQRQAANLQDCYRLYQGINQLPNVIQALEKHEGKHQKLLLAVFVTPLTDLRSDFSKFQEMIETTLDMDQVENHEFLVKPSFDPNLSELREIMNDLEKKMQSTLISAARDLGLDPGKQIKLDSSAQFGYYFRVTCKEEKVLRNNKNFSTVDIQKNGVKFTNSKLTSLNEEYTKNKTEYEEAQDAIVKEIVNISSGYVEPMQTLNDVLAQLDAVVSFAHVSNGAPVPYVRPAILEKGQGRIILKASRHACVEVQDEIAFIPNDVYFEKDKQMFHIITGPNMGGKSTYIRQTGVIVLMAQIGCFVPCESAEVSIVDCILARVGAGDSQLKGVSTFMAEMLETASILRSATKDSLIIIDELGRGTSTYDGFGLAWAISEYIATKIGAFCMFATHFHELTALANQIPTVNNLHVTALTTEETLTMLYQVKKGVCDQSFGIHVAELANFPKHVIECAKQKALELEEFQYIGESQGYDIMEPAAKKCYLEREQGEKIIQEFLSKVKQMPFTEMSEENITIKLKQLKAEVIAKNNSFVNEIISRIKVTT
# hMutSα (hMSH2-hMSH6) WT recombinant, sequence (P52701 whole entry, chain 2 of 2): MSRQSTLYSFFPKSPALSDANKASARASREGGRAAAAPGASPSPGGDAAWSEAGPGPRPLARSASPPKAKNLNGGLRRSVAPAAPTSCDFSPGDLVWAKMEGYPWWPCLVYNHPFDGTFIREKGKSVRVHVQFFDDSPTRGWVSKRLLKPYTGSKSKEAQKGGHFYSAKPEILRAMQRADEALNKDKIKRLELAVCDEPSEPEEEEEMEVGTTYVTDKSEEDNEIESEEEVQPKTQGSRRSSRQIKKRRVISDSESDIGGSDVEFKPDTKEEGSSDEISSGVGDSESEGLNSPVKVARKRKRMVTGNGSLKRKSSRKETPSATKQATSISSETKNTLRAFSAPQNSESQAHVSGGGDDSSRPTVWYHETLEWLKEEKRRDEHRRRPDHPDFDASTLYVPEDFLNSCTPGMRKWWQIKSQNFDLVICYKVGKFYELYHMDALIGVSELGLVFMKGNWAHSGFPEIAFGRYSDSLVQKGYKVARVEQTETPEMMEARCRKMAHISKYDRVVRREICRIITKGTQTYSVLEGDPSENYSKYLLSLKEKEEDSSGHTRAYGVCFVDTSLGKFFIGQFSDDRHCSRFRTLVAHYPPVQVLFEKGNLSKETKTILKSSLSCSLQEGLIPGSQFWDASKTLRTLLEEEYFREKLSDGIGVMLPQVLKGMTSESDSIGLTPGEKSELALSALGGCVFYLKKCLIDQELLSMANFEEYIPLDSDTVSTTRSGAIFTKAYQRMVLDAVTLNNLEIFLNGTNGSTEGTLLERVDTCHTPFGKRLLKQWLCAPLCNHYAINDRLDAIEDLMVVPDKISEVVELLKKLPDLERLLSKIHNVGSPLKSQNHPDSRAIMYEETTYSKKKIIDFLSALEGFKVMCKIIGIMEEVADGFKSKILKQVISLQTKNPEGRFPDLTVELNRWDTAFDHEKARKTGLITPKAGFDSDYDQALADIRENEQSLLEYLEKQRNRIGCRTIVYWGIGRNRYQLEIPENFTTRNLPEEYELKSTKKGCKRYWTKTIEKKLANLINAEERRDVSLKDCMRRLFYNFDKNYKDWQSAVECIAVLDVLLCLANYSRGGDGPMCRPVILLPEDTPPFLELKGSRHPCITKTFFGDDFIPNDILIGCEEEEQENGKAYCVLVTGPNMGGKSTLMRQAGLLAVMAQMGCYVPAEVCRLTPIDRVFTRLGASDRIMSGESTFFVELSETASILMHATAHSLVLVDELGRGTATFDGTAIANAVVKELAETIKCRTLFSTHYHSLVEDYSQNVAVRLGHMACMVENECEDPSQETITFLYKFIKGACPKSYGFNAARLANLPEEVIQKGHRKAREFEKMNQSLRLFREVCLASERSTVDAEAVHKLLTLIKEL
binder,measurement,value
B1,binding result,binds
